Assay results reported in the supplement of paper PMC5998384.

Legend:
HeLa Kyoto [1] = test: solubility in G1/S (NP-40 vs SDS abundance) (log2 ratio); higher = more soluble; settings: cell cycle stage: G1/S
HeLa Kyoto [2] = test: solubility change mitosis vs G1/S (difference of NP-40 vs SDS log2 ratios) (log2 ratio difference); higher = more soluble in mitosis
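For solubility change mitosis vs G1/S (difference of NP-40 vs SDS log2 ratios) in this document: synchronized HeLa Kyoto cells (double thymidine block for G1/S, nocodazole release for mitosis), protein amounts in NP-40 versus SDS lysates quantified by mass spectrometry, three biological replicates.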
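For solubility in G1/S (NP-40 vs SDS abundance) in this document: HeLa Kyoto cells arrested at G1/S by double thymidine block, proteins quantified by TMT10plex mass spectrometry in mild NP-40 versus SDS extracts, three biological replicates.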

Sequence	solubility in G1/S (log2) (HeLa Kyoto [1])	solubility change mitosis (log2) (HeLa Kyoto [2])
MENLMTSSTLPPLFADEDGSKESNDLATTGLNHPEVPYSSGATSSTNNPEFVEDLSQGQLLQSESSNAAEGNEQRHEDEQRSKRGGWSKGRKRKKPLRDSNAPKSPLTGYVRFMNERREQLRAKRPEVPFPEITRMLGNEWSKLPPEEKQRYLDEADRDKERYMKELEQYQKTEAYKVFSRKTQDRQKGKSHRQDAARQATHDHEKETEVKERSVFDIPIFTEEFLNHSKAREAELRQLRKSNMEFEERNAALQKHVESMRTAVEKLEVDVIQERSRNTVLQQHLETLRQVLTSSFASMPLPGSGETPTVDTIDSYMNRLHSIILANPQDNENFIATVREVVNRLDR [HMG20A]	-0.0378	0.298
MENLPAVTTEEPTPMGRGPVGPSGGGSTRDQVRTVVMRPSVSWEKAGPEEAKAPVRGDEAPPARVAGPAAGTPPCQMGVYPTDLTLQLLAVRRKSRLRDPGLQQTLRGQLRLLENDSREMARVLGELSARLLSIHSDQDRIVVTFKTFEEIWKFSTYHALGFTHHCLANLLMDQAFWLLLPSEEEETAIQVHVDENALRLTHESLLIQEGPFFVLCPDHHVRVMTGPRDAGNGPQALRQASGAPQGEAAPETDSSPPSPSVSSEEVAVAAAPEPLIPFHQWALRIPQDPIDDAMGGPVMPGNPLMAVGLASALADFQGSGPEEMTFRGGDLIEILGAQVPSLPWCVGRHAASGRVGFVRSSLISMQGPVSELESAIFLNEEEKSFFSEGCFSEEDARQLLRRMSGTDVCSVYSLDSVEEAETEQPQEKEIPPPCLSLEPQETLQKVKNVLEQCKTCPGCPQEPASWGLCAASSDVSLQDPEEPSFCLEAEDDWEDPEALSSLLLFLNAPGYKASFRGLYDVALPWLSSVFRSFSDEEELTGRLAQARGAAKKAGLLMALARLCFLLGRLCSRRLKLSQARVYFEEALGALEGSFGDLFLVVAVYANLASIYRKQKNREKCAQVVPKAMALLLGTPDHICSTEAEGELLQLALRRAVGGQSLQAEARACFLLARHHVHLKQPEEALPFLERLLLLHRDSGAPEAAWLSDCYLLLADIYSRKCLPHLVLSCVKVASLRTRGSLAGSLRSVNLVLQNAPQPHSLPAQTSHYLRQALASLTPGTGQALRGPLYTSLAQLYSHHGCHGPAITFMTQAVEASAIAGVRAIVDHLVALAWLHVLHGQSPVALDILQSVRDAVVASEDQEGVIANMVAVALKRTGRTRQAAESYYRALRVARDLGQQRNQAVGLANFGALCLHAGASRLAQHYLLEAVRLFSRLPLGECGRDFTHVLLQLGHLCTRQGPAQQGKGYYEWALLVAVEMGHVESQLRAVQRLCHFYSAVMPSEAQCVIYHELQLSLACKVADKVLEGQLLETISQLYLSLGTERAYKSALDYTKRSLGIFIDLQKKEKEAHAWLQAGKIYYILRQSELVDLYIQVAQNVALYTGDPNLGLELFEAAGDIFFDGAWEREKAVSFYRDRALPLAVTTGNRKAELRLCNKLVALLATLEEPQEGLEFAHMALALSITLGDRLNERVAYHRLAALQHRLGHGELAEHFYLKALSLCNSPLEFDEETLYYVKVYLVLGDIIFYDLKDPFDAAGYYQLALAAAVDLGNKKAQLKIYTRLATIYHNFLLDREKSLFFYQKARTFATELNVRRVNLPPLPLCGWAPWLAPSHPR [SH3TC1]	-0.47	0.0532
MEPIYPFARPQMNTRFPSSRMVPFHFPPSKCALWNPTPTGDFIYLHLSYYRNPKLVVTEKTIRLAYRHAKQNKKNSSCFLLGSLTADEDEEGVTLTVDRFDPGREVPECLEITPTASLPGDFLIPCKVHTQELCSREMIVHSVDDFSSALKALQCHICSKDSLDCGKLLSLRVHITSRESLDSVEFDLHWAAVTLANNFKCTPVKPIPIIPTALARNLSSNLNISQVQGTYKYGYLTMDETRKLLLLLESDPKVYSLPLVGIWLSGITHIYSPQVWACCLRYIFNSSVQERVFSESGNFIIVLYSMTHKEPEFYECFPCDGKIPDFRFQLLTSKETLHLFKNVEPPDKNPIRCELSAESQNAETEFFSKASKNFSIKRSSQKLSSGKMPIHDHDSGVEDEDFSPRPIPSPHPVSQKISKIQPSVPELSLVLDGNFIESNPLPTPLEMVNNENPPLINHLEHLKPLQPQLYDEKHSPEVEAGEPSLRGIPNQLNQDKPALLRHCKVRQPPAYKKGNPHTRNSIKPSSHNGPSHDIFEKLQTVSAGNVQNEEYPIRPSTLNSRQSSLAPQSQPHDFVFSPHNSGRPMELQIPTPPLPSYCSTNVCRCCQHHSHIQYSPLNSWQGANTVGSIQDVQSEALQKHSLFHPSGCPALYCNAFCSSSSPIALRPQGDMGSCSPHSNIEPSPVARPPSHMDLCNPQPCTVCMHTPKTESDNGMMGLSPDAYRFLTEQDRQLRLLQAQIQRLLEAQSLMPCSPKTTAVEDTVQAGRQMELVSVEAQSSPGLHMRKGVSIAVSTGASLFWNAAGEDQEPDSQMKQDDTKISSEDMNFSVDINNEVTSLPGSASSLKAVDIPSFEESNIAVEEEFNQPLSVSNSSLVVRKEPDVPVFFPSGQLAESVSMCLQTGPTGGASNNSETSEEPKIEHVMQPLLHQPSDNQKIYQDLLGQVNHLLNSSSKETEQPSTKAVIISHECTRTQNVYHTKKKTHHSRLVDKDCVLNATLKQLRSLGVKIDSPTKVKKNAHNVDHASVLACISPEAVISGLNCMSFANVGMSGLSPNGVDLSMEANAIALKYLNENQLSQLSVTRSNQNNCDPFSLLHINTDRSTVGLSLISPNNMSFATKKYMKRYGLLQSSDNSEDEEEPPDNADSKSEYLLNQNLRSIPEQLGGQKEPSKNDHEIINCSNCESVGTNADTPVLRNITNEVLQTKAKQQLTEKPAFLVKNLKPSPAVNLRTGKAEFTQHPEKENEGDITIFPESLQPSETLKQMNSMNSVGTFLDVKRLRQLPKLF [STIL]	-0.362	0.239
MEPQEERETQVAAWLKKIFGDHPIPQYEVNPRTTEILHHLSERNRVRDRDVYLVIEDLKQKASEYESEAKYLQDLLMESVNFSPANLSSTGSRYLNALVDSAVALETKDTSLASFIPAVNDLTSDLFRTKSKSEEIKIELEKLEKNLTATLVLEKCLQEDVKKAELHLSTERAKVDNRRQNMDFLKAKSEEFRFGIKAAEEQLSARGMDASLSHQSLVALSEKLARLKQQTIPLKKKLESYLDLMPNPSLAQVKIEEAKRELDSIEAELTRRVDMMEL [HAUS1]	0.463	0.128
MEPQVTLNVTFKNEIQSFLVSDPENTTWADIEAMVKVSFDLNTIQIKYLDEENEEVSINSQGEYEEALKMAVKQGNQLQMQVHEGHHVVDEAPPPVVGAKRLAARAGKKPLAHYSSLVRVLGSDMKTPEDPAVQSFPLVPCDTDQPQDKPPDWFTSYLETFREQVVNETVEKLEQKLHEKLVLQNPSLGSCPSEVSMPTSEETLFLPENQFSWHIACNNCQRRIVGVRYQCSLCPSYNICEDCEAGPYGHDTNHVLLKLRRPVVGSSEPFCHSKYSTPRLPAALEQVRLQKQVDKNFLKAEKQRLRAEKKQRKAEVKELKKQLKLHRKIHLWNSIHGLQSPKSPLGRPESLLQSNTLMLPLQPCTSVMPMLSAAFVDENLPDGTHLQPGTKFIKHWRMKNTGNVKWSADTKLKFMWGNLTLASTEKKDVLVPCLKAGHVGVVSVEFIAPALEGTYTSHWRLSHKGQQFGPRVWCSIIVDPFPSEESPDNIEKGMISSSKTDDLTCQQEETFLLAKEERQLGEVTEQTEGTAACIPQKAKNVASERELYIPSVDLLTAQDLLSFELLDINIVQELERVPHNTPVDVTPCMSPLPHDSPLIEKPGLGQIEEENEGAGFKALPDSMVSVKRKAENIASVEEAEEDLSGTQFVCETVIRSLTLDAAPDHNPPCRQKSLQMTFALPEGPLGNEKEEIIHIAEEEAVMEEEEDEEDEEEEDELKDEVQSQSSASSEDYIIILPECFDTSRPLGDSMYSSALSQPGLERGAEGKPGVEAGQEPAEAGERLPGGENQPQEHSISDILTTSQTLETVPLIPEVVELPPSLPRSSPCVHHHGSPGVDLPVTIPEVSSVPDQIRGEPRGSSGLVNSRQKSYDHSRHHHGSSIAGGLVKGALSVAASAYKALFAGPPVTAQPIISEDQTAALMAHLFEMGFCDRQLNLRLLKKHNYNILQVVTELLQLNNNDWYSQRY [NBR1]	-0.371	0.193
